Results from US20200199241A1 (Chugai, published 2020).

B1: IgG1-F226 (antibody)
heavy: QVQLQESGPGLVKPSETLSLTCAVSGHSISHDHAWSWVRQPPGEGLEWIGFISYSGITNYNPSLQGRVTISRDNSKNTLYLQMNSLRAEDTAVYYCARSLARTTAMDYWGEGTLVTVSSASTKGPSVFPLAPSSKSTSGGTAALGCLVKDYFPEPVTVSWNSGALTSGVHTFPAVLQSSGLYSLSSVVTVPSSSLGTQTYICNVNHKPSNTKVDKKVEPKSCDKTHTCPPCPAPELLGGPSVFLFPPKPKDTLYISRTPEVTCVVVDVSHEDPEVKFNWYVDGVEVHNAKTKPREEQYNSTYRVVSVLTVLHQDWKNGKEYKCKVSNKALPAPIEKTISKAKGQPREPQVYTLPPSRDELTKNQVSLTCLVKGFYPSDIAVEWESNGQPENNYKTTPPVLDSDGSFFLYSKLTVDKSRWQQGNVFSCSVMHEALHYHYTQKSLSLSP
light: not shown
notes: EU numbering; copies: 2 + 2
B2: IgG1-F227 (antibody)
heavy: QVQLQESGPGLVKPSETLSLTCAVSGHSISHDHAWSWVRQPPGEGLEWIGFISYSGITNYNPSLQGRVTISRDNSKNTLYLQMNSLRAEDTAVYYCARSLARTTAMDYWGEGTLVTVSSASTKGPSVFPLAPSSKSTSGGTAALGCLVKDYFPEPVTVSWNSGALTSGVHTFPAVLQSSGLYSLSSVVTVPSSSLGTQTYICNVNHKPSNTKVDKKVEPKSCDKTHTCPPCPAPELLGGPSVFLFPPKPKDTLYISRTPEVTCVVVDVSHEDPEVKFNWYVDGVEVHEAKTKPREEQYNSTYRVVSVLTVLHQDWLNGKEYKCKVSNKALPAPIEKTISKAKGQPREPQVYTLPPSRDELTKNQVSLTCLVKGFYPSDIAVEWESNGQPENNYKTTPPVLDSDGSFFLYSKLTVDKSRWQQGNVFSCSVMHEALHYHYTQKSLSLSP
light: not shown
notes: EU numbering; copies: 2 + 2
B3: IgG1-F236 (antibody)
heavy: QVQLQESGPGLVKPSETLSLTCAVSGHSISHDHAWSWVRQPPGEGLEWIGFISYSGITNYNPSLQGRVTISRDNSKNTLYLQMNSLRAEDTAVYYCARSLARTTAMDYWGEGTLVTVSSASTKGPSVFPLAPSSKSTSGGTAALGCLVKDYFPEPVTVSWNSGALTSGVHTFPAVLQSSGLYSLSSVVTVPSSSLGTQTYICNVNHKPSNTKVDKKVEPKSCDKTHTCPPCPAPELLGGPSVFLFPPKPIDTLMISRTPEVTCVVVDVSHEDPEVKFNWYVDGVEVHNAKTKPREEQYNSTYRVVSVLTVLHQDWLNGKEYKCKVSNKALPAPIEKTISKAKGQPREPQVYTLPPSRDELTKNQVSLTCLVKGFYPSDIAVEWESNGQPENNYKTTPPVLDSDGSFFLYSKLTVDKSRWQQGNVFSCSVLHEALHYHYTQKSLSLSP
light: not shown
notes: EU numbering; copies: 2 + 2
B4: IgG1-F240 (antibody)
heavy: QVQLQESGPGLVKPSETLSLTCAVSGHSISHDHAWSWVRQPPGEGLEWIGFISYSGITNYNPSLQGRVTISRDNSKNTLYLQMNSLRAEDTAVYYCARSLARTTAMDYWGEGTLVTVSSASTKGPSVFPLAPSSKSTSGGTAALGCLVKDYFPEPVTVSWNSGALTSGVHTFPAVLQSSGLYSLSSVVTVPSSSLGTQTYICNVNHKPSNTKVDKKVEPKSCDKTHTCPPCPAPELLGGPSVFLFPPKPKDTLYISRTPEVTCVVVDVSHEDPEVKFNWYVDGVEVHNAKTKPREEQYNSTYRVVSVLTVLHQDWLNGKEYKCKVSNKALPAPIEKTISKAKGQPREPQVYTLPPSRDELTKNQVSLTCLVKGFYPSDIAVEWESNGQPENNYKTTPPVLDSDGSFFLYSKLTVDKSRWQQGNVFSCSVFHEALHYHYTQKSLSLSP
light: not shown
notes: EU numbering; copies: 2 + 2
B5: IgG1-F237 (antibody)
heavy: QVQLQESGPGLVKPSETLSLTCAVSGHSISHDHAWSWVRQPPGEGLEWIGFISYSGITNYNPSLQGRVTISRDNSKNTLYLQMNSLRAEDTAVYYCARSLARTTAMDYWGEGTLVTVSSASTKGPSVFPLAPSSKSTSGGTAALGCLVKDYFPEPVTVSWNSGALTSGVHTFPAVLQSSGLYSLSSVVTVPSSSLGTQTYICNVNHKPSNTKVDKKVEPKSCDKTHTCPPCPAPELLGGPSVFLFPPKPKDTLYISRTPEVTCVVVDVSHEDPEVKFNWYVDGVEVHNAKTKPREEQYNSTYRVVSVLTVLHQDWLNGKEYKCKVSNKALPAPIEKTISKAKGQPREPQVYTLPPSRDELTKNQVSLTCLVKGFYPSDIAVEWESNGQPENNYKTTPPVLDSDGSFFLYSKLTVDKSRWQQGNVFSCSVAHEALHYHYTQKSLSLSP
light: not shown
notes: EU numbering; copies: 2 + 2
B6: IgG1-F229 (antibody)
heavy: QVQLQESGPGLVKPSETLSLTCAVSGHSISHDHAWSWVRQPPGEGLEWIGFISYSGITNYNPSLQGRVTISRDNSKNTLYLQMNSLRAEDTAVYYCARSLARTTAMDYWGEGTLVTVSSASTKGPSVFPLAPSSKSTSGGTAALGCLVKDYFPEPVTVSWNSGALTSGVHTFPAVLQSSGLYSLSSVVTVPSSSLGTQTYICNVNHKPSNTKVDKKVEPKSCDKTHTCPPCPAPELLGGPSVFLFPPKPKDTLYISETPEVTCVVVDVSHEDPEVKFNWYVDGVEVHNAKTKPREEQYNSTYRVVSVLTVLHQDWLNGKEYKCKVSNKALPAPIEKTISKAKGQPREPQVYTLPPSRDELTKNQVSLTCLVKGFYPSDIAVEWESNGQPENNYKTTPPVLDSDGSFFLYSKLTVDKSRWQQGNVFSCSVMHEALHYHYTQKSLSLSP
light: not shown
notes: EU numbering; copies: 2 + 2
B7: IgG1-F230 (antibody)
heavy: QVQLQESGPGLVKPSETLSLTCAVSGHSISHDHAWSWVRQPPGEGLEWIGFISYSGITNYNPSLQGRVTISRDNSKNTLYLQMNSLRAEDTAVYYCARSLARTTAMDYWGEGTLVTVSSASTKGPSVFPLAPSSKSTSGGTAALGCLVKDYFPEPVTVSWNSGALTSGVHTFPAVLQSSGLYSLSSVVTVPSSSLGTQTYICNVNHKPSNTKVDKKVEPKSCDKTHTCPPCPAPELLGGPSVFLFPPKPKDTLYISRTPEVTCVVVDVSHEDPEVKFNWYVDGVEVHNAKTKPREEQYNSTYRVVSVLTVLHQDWLNGKEYKCKVSNKALPAPIEKTISKAKGQPREPQVYTLPPSRDELTKNQVSLTCLVKGFYPSDIAVEWESNGQEENNYKTTPPVLDSDGSFFLYSKLTVDKSRWQQGNVFSCSVMHEALHYHYTQKSLSLSP
light: not shown
notes: EU numbering; copies: 2 + 2
B8: IgG1-F238 (antibody)
heavy: QVQLQESGPGLVKPSETLSLTCAVSGHSISHDHAWSWVRQPPGEGLEWIGFISYSGITNYNPSLQGRVTISRDNSKNTLYLQMNSLRAEDTAVYYCARSLARTTAMDYWGEGTLVTVSSASTKGPSVFPLAPSSKSTSGGTAALGCLVKDYFPEPVTVSWNSGALTSGVHTFPAVLQSSGLYSLSSVVTVPSSSLGTQTYICNVNHKPSNTKVDKKVEPKSCDKTHTCPPCPAPELLGGPSVFLFPPKPKDTLYISRTPEVTCVVVDVSHEDPEVKFNWYVDGVEVHNAKTKPREEQYNSTYRVVSVLTVLHQDWLNGKEYKCKVSNKALPAPIEKTISKAKGQPREPQVYTLPPSRDELTKNQVSLTCLVKGFYPSDIAVEWESNGQPENNYKTTPPVLDSDGSFFLYSKLTVDKSRWQQGNVFSCSVDHEALHYHYTQKSLSLSP
light: not shown
notes: EU numbering; copies: 2 + 2
B9: IgG1-F228 (antibody)
heavy: QVQLQESGPGLVKPSETLSLTCAVSGHSISHDHAWSWVRQPPGEGLEWIGFISYSGITNYNPSLQGRVTISRDNSKNTLYLQMNSLRAEDTAVYYCARSLARTTAMDYWGEGTLVTVSSASTKGPSVFPLAPSSKSTSGGTAALGCLVKDYFPEPVTVSWNSGALTSGVHTFPAVLQSSGLYSLSSVVTVPSSSLGTQTYICNVNHKPSNTKVDKKVEPKSCDKTHTCPPCPAPELLGGPSVFLFPPKPKDTLYISRTPEVTCVVVDVSHEDPEVKFNWYVDGVEVHNAKTKPREEQYNSTYRVVSVLTVEHQDWLNGKEYKCKVSNKALPAPIEKTISKAKGQPREPQVYTLPPSRDELTKNQVSLTCLVKGFYPSDIAVEWESNGQPENNYKTTPPVLDSDGSFFLYSKLTVDKSRWQQGNVFSCSVMHEALHYHYTQKSLSLSP
light: not shown
notes: EU numbering; copies: 2 + 2

Molecular target: T1, human FcRn (soluble human FcRn complexed with β2-microglobulin) (human, UniProt P61769 21-119, limits assumed)
T1 construct: also called hFcRn
Assay: SPR, pH 7.0;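 note: antibodies captured on a Protein L sensor chip with human FcRn injected as analyte, KD calculated from fitted association and dissociation rate constants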

T1 sequence (chain, as listed by the source limits assumed, chain 1 of 2): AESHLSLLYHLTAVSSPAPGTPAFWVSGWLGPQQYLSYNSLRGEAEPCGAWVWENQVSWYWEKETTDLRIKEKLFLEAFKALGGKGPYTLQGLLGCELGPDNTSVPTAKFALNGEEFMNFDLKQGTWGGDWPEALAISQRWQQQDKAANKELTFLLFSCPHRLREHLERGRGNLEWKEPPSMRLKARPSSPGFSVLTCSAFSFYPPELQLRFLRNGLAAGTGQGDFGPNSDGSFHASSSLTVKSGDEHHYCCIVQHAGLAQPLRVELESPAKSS
T1 sequence (P61769 21-119 limits assumed, chain 2 of 2): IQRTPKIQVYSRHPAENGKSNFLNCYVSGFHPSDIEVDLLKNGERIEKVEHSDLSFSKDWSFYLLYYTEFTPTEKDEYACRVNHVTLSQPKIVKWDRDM

Going from B1 to B2, the Kd falls from 540 nM to 120 nM (4.5-fold). The second binds more tightly here.

B3 and B4 are within 1.5-fold of each other in Kd: 890 nM for the first, 720 nM for the second.

Going from B5 to B6, the Kd rises from 230 nM to 510 nM (2.2-fold).

First: B7
Second: B8
The Kd of the first is 3-fold lower: 250 nM for the first, 740 nM for the second.

For B9, the Kd was 230 nM.
